The results in this text go back to PMC11437124 (Nature Communications, 2024).

B1: 3.10A7 (antibody, V domains shown)
VH: AVQLVESGGGLVQPKESLKISCAASGITFSNAAMFWVRQAPGKGLEWVARIRTKPNNYATNYADSVKGRFTISRDDSKSMVYLQMDNLKTEDTAMYYCTAGTTVVPFDYWGQGVMVTVSS
VL: DIVMTQSPSSLAVSAGETVTIDCKSSQSLLYSGNQKTYLAWYQQKPGQSPKLLIYWASTRQSGVPDRFIGSGSGTDFTLTISSVQAEDLAIYYCQQYYDTPLTFGSGTKLEIK
B2: 3.21B10 (antibody, V domains shown)
VH: AVQLIESGGGLVQPKGSLKISCAASGFTFSDAAMFWVRQAPGKGLEWIARIRTKPNNYATYYADSVRGRFTISRDDSKSMVYLQMDNLKTDDTAMYYCIEGVNYGGSPFVYWGQGTLVTVSS
VL: DIVMTQSPSSLAVSAGETVTINCKSSQSLLYSGNQKSYLAWYQQKPGQSPKLLIYWASTRQSGVPDRFIGSVSGTDFTLTISSVQAEDLAIYYCQQYYDIPLTFGSGTKVEIK
B3: R19-11-36 (antibody, V domains shown)
VH: AVQLVESGGGLVQPKESLKISCAAAGFTFTSAAMYWVRQAPGKGLEWIARIRTKADNIATNYADSVKGRFTISRDDSKNMVYLQMDDLKTEDTAMYYCTAGITTGGFEYWGQGVMVTVSS
VL: DIVMTQSPSSLAVSAGETVTIDCKSSQSLLYSGNQKTYLAWYQQKPGQSPKLLIYWASTRQSGVPDRFIGSGSGTDFTLTISSVQAEDLAIYYCQQYYDTPLTFGSGTKLEIK
B4: R19-11-41 (antibody, V domains shown)
VH: AVQLVESGGGLVQPKESLKISCAASGFTFSNAAMYWVRQAPGKGLEWVARIRTKPNNYATYYADSVKGRFTISRDDSKSMVYLQMDNLKTEDTAMYYCTAEGITTWFDYWGQGVMVTVSS
VL: DIVMTQSPSSLAVSAGETVTIDCKSSQSLLYSGNQKTYLAWYQQKPGQSPKLLIYWASTRQSGVPDRFIGSGSGTDFTLTISSVQAEDLAIYYCQQYYDTPLTFGSGTKLEIK
B5: R19-11-40 (antibody, V domains shown)
VH: AVQLVESGGGLVQPKESLKISCAASGFTFSNAAMFWVRQAPGEGLEWVARIRTKPNSYATYYADSVKGRFTISRDDSKSMVYLQMDNLKTEDTAMYYCTADYPGMGFDSWGQGVMVTVSS
VL: DIVMTQSPSSLAVSAGETVTIDCKSSQSLLYSGNQKTYLAWYQQKPGQSPKLLIYWASTRQSGVPDRFIGSGSGTDFTLTISSVQAEDLAIYYCQQYYDTPLTFGSGTKLEIK
B6: R19-11-37 (antibody, V domains shown)
VH: AVQLVESGGGLVQPKESLKISCAASGFTFSNAAMYWVRQAPGKGLEWVARIRTKPNNYATYYADSVKGRFTISRDDSKSMVYLQMDNLKTEDTAMYYCIASRYGYDFDYWGQGVMVTVSS
VL: DIVMTQSPSSLAVSAGETVTIDCKSSQSLLYSGNQKTYLAWYQQKPGQSPKLLIYWASTRQSGVPDRFIGSGSGTDFTLTISSVQAEDLAIYYCQQYYDTPLTFGSGTKLEIK
B7: R19-11-42 (antibody, V domains shown)
VH: AVQLVESGGGLVHPQESLKISCLASGLSFSSAAMYWVRQVPGKGLEWLARIRTKPNNYATFYADSVKGRFTISRDDSKSMVFLQMDDLNTEDTAIYYCTASVFTVAFEYWGQGVMVTVSS
VL: DIVMTQSPSSLAVSAGETVTIDCKSSQSLLYSGNQKTYLAWYQQKPGQSPKLLIYWASTRQSGVPDRFIGSGSGTDFTLTISSVQAEDLAIYYCQQYYDTPLTFGSGTKLEIK
B8: R19-11-38 (antibody, V domains shown)
VH: AVQLVESGGGLVQPKESLKISCAASGFTFSNAAMYWVRQAPGKGLEWVARIRTKPNNYATYYADSVKGRFTISRDDSKSMVYLQMDNLKTEDTAMYYCTAAFYGYYFDYWGQGVMVTVSS
VL: DIVMTQSPSSLAVSAGETVTIDCKSSQSLLYSGNQKTYLAWYQQKPGQSPKLLIYWASTRQSGVPDRFIGSGSGTDFTLTISSVQAEDLAIYYCQQYYDTPLTFGSGTKLEIK
B9: antibody 3.41B10 (antibody, V domains shown)
VH: AVQLVESGGGLVQPKESLKISCEASGFTFTNAAMNWVRQAPGKGLEWVARIRTKPNNYRTYYADSVRGRFTISRDDSKSMVHLQMDNLKTEDTAMYYCTGEGPQGGFVYWGQGTLVTVSS
VL: DIVMTQSPSSLTVSAGGTVTINCKSSQSLLYSGDRKNYLAWYQQKPGQSPKLLIYWSSTRQSGVPDRFIGSGSGTDFTLTISSVQAEDLAIYYCQQYYDSPLTFGSGTKLDIK
B10: antibody 3.27H7 (antibody, V domains shown)
VH: EVQLVETGGSLVQPGGSLKLTCATSGFPFSNVWLHWIRRSPEKQLEWVAQIKARSDNYATYYAESVKGRFIVSRDDSKTTIYLQMNNLKEEDTAIYYCTGLDYWGQGVMVTVSS
VL: DVVLTQAPLSVSVTPGESASISCRSSRSLLTSKGITSLYWYLQKPGMSPHLLIYRMSNLASGIPDRFSGSGSETDFTLKISEVEPEDVGVYYCAQFLVYPYTFGAGTKLELK
B11: antibody 3.18E5 (antibody, V domains shown)
VH: EVQLVETGGSLVQPGKSLKLTCATSGFPFSNVWMHWVRQSPEKQLEWIAHIKAKSDNYATYYAESVKGRFTISRDDSKTTIYLQMNSLKEADTAIYYCTGLDYWGQGVMVTVSS
VL: DTVLTQAPLSVSVTPGESASISCRSNKSLLGIRDITSLYWYLQKPGKSPQLLIYRMSNLASGVPDRFSGSGSETDFTLKISEVETEDVGVYYCAQFLRYPYTFGPGTKLELK
B12: antibody 3.50G1 (antibody, V domains shown)
VH: EVQLVETGGSLVQPGKSLKLTCATSGFPFSNVWMHWVRQSPEKQLEWIAHIKAKSDNYATYYAESVKGRFTISRDDSKTSIYLQMNSLKDDDTAIYYCTGLDYWGQGVMVTVSS
VL: DTVLTQAPLSVSVTPGESASISCRSNKSLLGIRDITSLYWFLQKPGKSPQLLIYRMSNLASGVPDRFSGSGSETDFTLKISEVETEDVGVYYCAQFLRYPYTFGPGTKLELQ
B13: antibody 3.22B9 (antibody, V domains shown)
VH: AVQVVESGGGLVQPKGSLKISCAVSGFTFSDAAMHWVRQAPGKGLEWVARIRTKPNSYATYYADSVKGRFIISRDDSKNMVYLQMDNLKIEDTAMYYCTAGTTTAPFDYWGQGVMVTVSS
VL: DIVMIQSPSSVAVSAGETVTINCKSSQSLLYSGDHKNYLAWFQQKPGQSPKLLIYWASTRLSDVPDRVIGSGSGTDFTLTISSVQAEDLATYYCQQYYDTPLTFGSGTKVEIK
B14: hu3.10C2 G106hD (antibody, V domains shown)
VH: EVQLVESGGGLVQPGGSLKLSCATSGFPFSNVWMHWVRQASGKGLEWIAHIKAKSDNYATYYAESVKGRFTISRDDSKTTIYLQMNSLKTEDTAVYYCTDLDYWGQGTTVTVSS
VL: DVVMTQSPLSLPVTPGEPASISCRSSRSLLTSKGITSLYWYLQKPGQSPQLLIYRMSNLASGIPDRFSGSGSGTDFTLKISRVEAEDVGVYYCAQFLVYPYTFGPGTKVEIK
B15: hu3.10C2 G106hD/I107h insertion/D116hE (antibody, V domains shown)
VH: EVQLVESGGGLVQPGGSLKLSCATSGFPFSNVWMHWVRQASGKGLEWIAHIKAKSDNYATYYAESVKGRFTISRDDSKTTIYLQMNSLKTEDTAVYYCTDILEYWGQGTTVTVSS
VL: DVVMTQSPLSLPVTPGEPASISCRSSRSLLTSKGITSLYWYLQKPGQSPQLLIYRMSNLASGIPDRFSGSGSGTDFTLKISRVEAEDVGVYYCAQFLVYPYTFGPGTKVEIK
B16: hu3.10C2 D116hE (antibody, V domains shown)
VH: EVQLVESGGGLVQPGGSLKLSCATSGFPFSNVWMHWVRQASGKGLEWIAHIKAKSDNYATYYAESVKGRFTISRDDSKTTIYLQMNSLKTEDTAVYYCTGLEYWGQGTTVTVSS
VL: DVVMTQSPLSLPVTPGEPASISCRSSRSLLTSKGITSLYWYLQKPGQSPQLLIYRMSNLASGIPDRFSGSGSGTDFTLKISRVEAEDVGVYYCAQFLVYPYTFGPGTKVEIK
B17: hu3.10C2 G106hD/D116hE (antibody, V domains shown)
VH: EVQLVESGGGLVQPGGSLKLSCATSGFPFSNVWMHWVRQASGKGLEWIAHIKAKSDNYATYYAESVKGRFTISRDDSKTTIYLQMNSLKTEDTAVYYCTDLEYWGQGTTVTVSS
VL: DVVMTQSPLSLPVTPGEPASISCRSSRSLLTSKGITSLYWYLQKPGQSPQLLIYRMSNLASGIPDRFSGSGSGTDFTLKISRVEAEDVGVYYCAQFLVYPYTFGPGTKVEIK
B18: hu3.10C2 I107h insertion/D116hE (antibody, V domains shown)
VH: EVQLVESGGGLVQPGGSLKLSCATSGFPFSNVWMHWVRQASGKGLEWIAHIKAKSDNYATYYAESVKGRFTISRDDSKTTIYLQMNSLKTEDTAVYYCTGILEYWGQGTTVTVSS
VL: DVVMTQSPLSLPVTPGEPASISCRSSRSLLTSKGITSLYWYLQKPGQSPQLLIYRMSNLASGIPDRFSGSGSGTDFTLKISRVEAEDVGVYYCAQFLVYPYTFGPGTKVEIK
B19: hu3.10C2 I107h insertion (antibody, V domains shown)
VH: EVQLVESGGGLVQPGGSLKLSCATSGFPFSNVWMHWVRQASGKGLEWIAHIKAKSDNYATYYAESVKGRFTISRDDSKTTIYLQMNSLKTEDTAVYYCTGILDYWGQGTTVTVSS
VL: DVVMTQSPLSLPVTPGEPASISCRSSRSLLTSKGITSLYWYLQKPGQSPQLLIYRMSNLASGIPDRFSGSGSGTDFTLKISRVEAEDVGVYYCAQFLVYPYTFGPGTKVEIK

The target in one assay is T1, human TREM2 on live cells (Homo sapiens, UniProt Q9NZC2).
Experiment: not given
As for B1, the binding result is given as “binds”. The same measure, in the same setting: in the case of B2 it was “binds”.

The next assay has as its target T2, human TREM2 extracellular domain (ECD) (Homo sapiens, UniProt Q9NZC2).
Experiment: not given
For B1, the binding result is listed as “binds”. Still for that read-out and setting: in the case of B3 it was “binds”; in that of B4, “binds”; in that of B5, “binds”.

Consider B6, for which the binding result was “binds”. The same measure, in the same setting: in the case of B7 it was “binds”; in that of B2, “binds”; in that of B8, “binds”.

For a further assay, the target named is T1, human TREM2 on live cells. The assay is described as follows: flow cytometry on cells. For orientation: In flow cytometry, cells or beads pass a laser one at a time.
With B9, the binding result is “binds”. Same read-out and setting: in the case of B10 it was “binds”.

Regarding B11, the binding result was “binds”. The same measure, in the same setting: in the case of B12 it was “binds”.

B13: the binding result is reported as “binds”.

For a further assay, the target named is T2, human TREM2 extracellular domain (ECD). The assay is described as follows: SPR. On the technique in general: In SPR one partner is held on a chip, and binding of the other changes the refractive index at the surface.
Target sequence in this assay (Q9NZC2 19-174): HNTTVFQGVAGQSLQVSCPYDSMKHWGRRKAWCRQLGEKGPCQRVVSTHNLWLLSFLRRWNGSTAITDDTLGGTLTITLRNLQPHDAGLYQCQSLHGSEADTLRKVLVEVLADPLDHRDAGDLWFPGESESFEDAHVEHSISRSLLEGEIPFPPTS
For the molecule B14, the binding result is recorded as “binds”. The same measure, in the same setting: in the case of B15 it was “binds”; in that of B16, “binds”. The same measure, in the same setting: in the case of B17 it was “binds”.

B18: the binding result is “binds”. Take B19: the binding result is “binds”.
